Assay results taken from IntAct's records for PubMed 21525957.

B1: Protein phosphatase Slingshot homolog 1 (Homo sapiens), Q8WYL5 (parent)
chain: MALVTLQRSPTPSAASSSASNSELEAGSEEDRKLNLSLSESFFMVKGAALFLQQGSSPQGQRSLQHPHKHAGDLPQHLQVMINLLRCEDRIKLAVRLESAWADRVRYMVVVYSSGRQDTEENILLGVDFSSKESKSCTIGMVLRLWSDTKIHLDGDGGFSVSTAGRMHIFKPVSVQAMWSALQVLHKACEVARRHNYFPGGVALIWATYYESCISSEQSCINEWNAMQDLESTRPDSPALFVDKPTEGERTERLIKAKLRSIMMSQDLENVTSKEIRNELEKQMNCNLKELKEFIDNEMLLILGQMDKPSLIFDHLYLGSEWNASNLEELQGSGVDYILNVTREIDNFFPGLFAYHNIRVYDEETTDLLAHWNEAYHFINKAKRNHSKCLVHCKMGVSRSASTVIAYAMKEFGWPLEKAYNYVKQKRSITRPNAGFMRQLSEYEGILDASKQRHNKLWRQQTDSSLQQPVDDPAGPGDFLPETPDGTPESQLPFLDDAAQPGLGPPLPCCFRRLSDPLLPSPEDETGSLVHLEDPEREALLEEAAPPAEVHRPARQPQQGSGLCEKDVKKKLEFGSPKGRSGSLLQVEETEREEGLGAGRWGQLPTQLDQNLLNSENLNNNSKRSCPNGMEDDAIFGILNKVKPSYKSCADCMYPTASGAPEASRERCEDPNAPAICTQPAFLPHITSSPVAHLASRSRVPEKPASGPTEPPPFLPPAGSRRADTSGPGAGAALEPPASLLEPSRETPKVLPKSLLLKNSHCDKNPPSTEVVIKEESSPKKDMKPAKDLRLLFSNESEKPTTNSYLMQHQESIIQLQKAGLVRKHTKELERLKSVPADPAPPSRDGPASRLEASIPEESQDPAALHELGPLVMPSQAGSDEKSEAAPASLEGGSLKSPPPFFYRLDHTSSFSKDFLKTICYTPTSSSMSSNLTRSSSSDSIHSVRGKPGLVKQRTQEIETRLRLAGLTVSSPLKRSHSLAKLGSLTFSTEDLSSEADPSTVADSQDTTLSESSFLHEPQGTPRDPAATSKPSGKPAPENLKSPSWMSKS

Variants of: B1
Conditions: with cof1_human CFL1, P23528
cof1_human CFL1, P23528, sequence (P23528 whole entry): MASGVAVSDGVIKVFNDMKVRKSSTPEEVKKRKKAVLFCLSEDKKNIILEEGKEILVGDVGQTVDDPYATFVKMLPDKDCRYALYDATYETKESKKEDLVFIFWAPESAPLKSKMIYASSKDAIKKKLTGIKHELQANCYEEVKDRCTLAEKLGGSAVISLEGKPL

effect of a mutation on the interaction | Variant
disrupting interaction | S402D

Variants of: B1
Conditions: with cof1_human CFL1, P23528
Remark: another data set of the same source

effect of a mutation on the interaction | Variant
disrupting interaction | S402E
